Test results as given in US20260200999A1, “SYNTHETIC TRANSCRIPTION FACTORS” (ETH ZURICH, priority 2022, published 2026).

B1: SEQ ID NO: 51: negative control promoter comprising 5 scrambled DNA binding sites spaced by 10 bp (nucleic acid)
DNA: ATTCTACCGTCTCGGGCCATTAAAGGCATATGATTCTACCGTCTCGGGCCATTAAAGGCATATGATTCTACCGTCTCGGGCCATTAAAGGCATATGATTCTACCGTCTCGGGCCATTAAAGGCATATGATTCTACCGTCTCGGGCCATTA
B2: codon optimized MTF construct: DNA construct encoding MTF with codons changed to the most common ones in humans (nucleic acid)
DNA: ATGTTCGGCGTGAAGTGCCACAACACCGACAGCGAGCCCCTGAAGAACGAGGACCTGCTGAAGAACCTGCTGACCATGGGCGTGGACATCGACATGGCCCGCAAGCGCCAGCCCGGCGTGTTCCACCGCATGATCACCAACGAGCAGGACCTGAAGATGTTCCTGCTGAGCAAGGGCGCCAGCAAGGAGGTGATCGCCAGCATCATCAGCCGCTACCCCCGCGCCATCACCCGCACCCCCGAGAACCTGAGCAAGCGCTGGGACCTGTGGCGCAAGATCGTGACCAGCGACCTGGAGATCGTGAACATCCTGGAGCGCAGCCCCGAGAGCTTCTTCCGCAGCAACAACAACCTGAACCTGGAGAACAACATCAAGTTCCTGTATAGCGTGGGCCTGACCCGCAAGTGCCTGTGCCGCCTGCTGACCAACGCCCCCCGCACCTTCAGCAACAGCCTGGACCTGAACAAGCAGATGGTGGAGTTCCTGCAGGCCGCCGGCCTGAGCCTGGGCCACAACGACCCCGCCGACTTCGTGCGCAAGATCATCTTCAAGAACCCCTTCATCCTGATCCAGAGCACCAAGCGCGTGAAGGCCAACATCGAGTTCCTGCGCAGCACCTTCAACCTGAACAGCGAGGAGCTGCTGGTGCTGATCTGCGGCCCCGGCGCCGAGATCCTGGACCTGAGCAACGACTACGCCCGCCGCAGCTACGCCAACATCAAGGAGAAGCTGTTCAGCCTGGGCTGCACCGAGGAGGAGGTGCAGAAGTTCGTGCTGAGCTACCCCGACGTGATCTTCCTGGCCGAGAAGAAGTTCAACGACAAGATCGACTGCCTGATGGAGGAGAACATCAGCATCAGCCAGATCATCGAGAACCCCCGCGTGCTGGACAGCAGCATCAGCACCCTGAAGAGCCGCATCAAGGAGCTGGTGAACGCCGGCTGCAACCTGAGCACCCTGAACATCACCCTGCTGAGCTGGAGCAAGAAGCGCTACGAGGCCAAGCTGAAGAAGCTGAGCCGCTTCGCCCAGGCCGGCGAGGGCACCCTGAGCGAGGCCCTGCTGCAGCTGCAGTTCGACGACGAGGACCTGGGCGCCCTGCTGGGCAACAGCACCGACCCCGCCGTGTTCACCGACCTGGCCAGCGTGGACAACAGCGAGTTCCAGCAGCTGCTGAACCAGGGCATCCCCGTGGCCCCCCACACCACCGAGCCCATGCTGATGGAGTACCCCGAGGCCATCACCCGCCTGGTGACCGGAGCACAAAGACCCCCTGATCCTGCGCCAGCACCTCTTGGAGCACCTGGCCTGCCCAACGGCCTGCTGAGCGGCGACGAGGACTTCAGCAGCATCGCCGACATGGACTTCAGCGCCCTGCTGAGCCAGATCAGCAGC

Legend:
Format in all cases: cell-based, human
[1] = test system: reporter construct with MTERF1 binding sites (SEQ ID NO: 42) upstream a minimal TATA box driving mCerulean; experiment: mCerulean reporter co-transfection with MTF construct in Hela cells (microscopy, flow cytometry)
Description: The inventors engineered an exemplary “Human-derived transcriptional activator protein” (HumTAP) transactivation system by engineering a HumTAP transactivator and a promoter comprising the Response Elements/MTERF1 binding sites that is operably linked to a gene of interest. A prototype HumTAP protein was made by fusing a peptide consisting of amino acids 58 through 399 of the human MTERF1 gene (MTERF158-399 (SEQ ID NO: 1), Uniprot Q99551) to a peptide consisting of amino acids 430 through 551 of the RELA protein (RelA430-551 (SEQ ID NO: 3), Uniprot Q04206). This fusion is henceforth referred to as MTERF158-399::RelA430-551 (or “MTF”; SEQ ID NO: 100). A DNA construct was made with a strong EF1A promoter driving a constitutive expression of MTF (SEQ ID NO: 101) in human cells (“MTF construct”).
To construct a promoter with Response Elements/MTERF1 binding sites driving the gene of interest, the inventors placed MTERF1 binding sites (SEQ ID NO: 42) upstream a minimal TATA box (SEQ ID NO: 103). An mCerulean fluorescent reporter representing the gene of interest (Gol) was placed downstream of the TATA box. Each of these is referred to as a reporter construct. […] Using flow cytometry, relative mCerulean levels were measured and calculated by normalization to the transfection control in Hela cells (FIG. 1C). […]

[2] = test system: Response Element-driven mCerulean reporter (MTERF1 binding sites, SEQ ID NO: 42); experiment: mCerulean reporter co-transfection with HumTAP constructs in HEK293 cells (flow cytometry)
Description: To construct a promoter with Response Elements/MTERF1 binding sites driving the gene of interest, the inventors placed MTERF1 binding sites (SEQ ID NO: 42) upstream a minimal TATA box (SEQ ID NO: 103). An mCerulean fluorescent reporter representing the gene of interest (Gol) was placed downstream of the TATA box. Each of these is referred to as a reporter construct. Five different reporter constructs were made comprising respectively 3, 5, 7, 9, and 11 MTERF1 binding sites 6 base pairs apart upstream of the TATA box (FIG. 1A; SEQ ID NO: 41, 44, 45, 46 and 47, respectively). They were co-transfected with the MTF construct into Hela cells. […] Using flow cytometry, relative mCerulean levels were measured and calculated by normalization to the transfection control in Hela cells (FIG. 1C). […] Next, reporter plasmids with varying spacer lengths (0, 6 bp and 10 bp; SEQ ID NO: 48, 44 and 49, respectively) (FIG. 1F) between a fixed number of REs (i.e. 5 REs/MTERF1 binding sites) were transfected with the MTF construct. […] This was confirmed using flow cytometry (FIG. 1H). […]
With the goal to engineer stronger and possibly shorter HumTAPs, the inventors fused the MTERF158-399 peptide (SEQ ID NO: 1) to a variety of transactivation domains and transfected HEK293 cells with those constructs and the reporter construct comprising 5×RE/MTERF1 binding sites without a spacer between them (SEQ ID NO: 48).
First, MTERF158-399 (SEQ ID NO: 1) was fused with different subsequences of RelA. RelA361-551 (SEQ ID NO: 27) corresponds to the sequence used in the construction of the bacterial-derived synthetic TF PIT2 [19], while RelA342-551 (SEQ ID NO: 29) contains all annotated transactivation domains according to domain annotation under Uniprot Q04206 (https://www.uniprot.org/uniprotkb/Q04206/entry). […] We also fused MTERF158-399 (SEQ ID NO: 1) to a set of transactivation domains previously found to be strong activators with a small genetic footprint (FIG. 4B).
To further decrease the DNA footprint of a HumTAP, the inventors investigated to what degree the DNA binding domain may be reduced. To this end, the inventors created 3 versions of MTERF1 subsequences fused to RelA430-551 (SEQ ID NO: 3). MTERF173-399 (SEQ ID NO: 7), MTERF1104-399 (SEQ ID NO: 9), and MTERF1135-399 (SEQ ID NO: 11) are subunits of MTERF1 without its mitochondrial transfer peptide (MTERF11-57; SEQ ID NO: 37) that either lack only the first […] N-terminal amino acids (MTERF58-72; SEQ ID NO: 39) or additionally, also lack the first (MTERF173-98; SEQ ID NO: 104) or both the first and second (MTERF1104-134; SEQ ID NO: 106) mterf motifs (FIG. 5A). The removal of N-terminal domains reduces the genetic footprint of a HumTAP (FIG. 5B). These constructs were co-transfected into HEK293 cells with the reporter construct containing 5×RE without a spacer in its promoter (SEQ ID NO: 48).
In addition to RelA430-551 (termed “v1”), the inventors tested three alternative subsequences: v2) RelA342-551 (SEQ ID NO: 29), which contains all transactivation domains as annotated on UniProt Q04206; v3) RelA361-551 (SEQ ID NO: 27), which is identical to the peptide used in the construction of PIT2 [2]; and v4) RelA521-551 (SEQ ID NO: 31), which constitutes only the transactivation domain 1 (TA1). The protein domains WW (SEQ ID NO: 21), KRAB of ZNF473 (SEQ ID NO: 23), Nuc-rec-co-Act (SEQ ID NO: 25), LMSTEN (SEQ ID NO: 19), and FoxoTAD (SEQ ID NO: 17) were recently identified as strong transactivators. To assess their functionality in the HumTAP context, the inventors created fusion proteins between each of them and MTERF158-399 (SEQ ID NO: 1) (FIG. 9A).
Upon co-transfection of HEK293 cells with plasmids encoding pEF1a-driven expression of the fusion HumTAPs, a Response Element-driven mCerulean reporter protein, and a mCherry transfection control, all peptides derived from RelA except TA1 mediated high levels of reporter gene expression. […]

[3] = test system: Response Element-driven mCerulean reporter; experiment: Dose dependency of mCerulean reporter expression on transfected MTF construct amount, HEK293; conditions: HEK293, 24-well plates, 100 ng reporter construct, Hill equation, Hill coefficient 1
Experimental: By transfecting different amounts of the codon optimized MTF construct into HEK293 cells the inventors established a dose dependency of mCerulean reporter (Gol) expression on the expression levels of MTF (FIG. 3). HEK293 cells in 24-well plates were transfected with 0.75, 3, 6, 12, 24, 48, 96, 192, and 384 ng of MTF construct, 100 ng of reporter construct, and 50 ng of constitutive mCherry transfection control construct. Two days after transfection, the cells were analyzed using flow cytometry. The dose-response curve was modeled as a Hill equation assuming a Hill coefficient of 1.

Row | Molecule | mCerulean reporter (Gol) expression ([1]; Hela cells co-transfected with MTF construct, microscopy and flow cytometry) | mCerulean reporter (Gol) expression ([2]; HEK293 cells co-transfected with MTF construct, microscopy and flow cytometry) | increase of reporter gene expression by codon optimization ([1]; Hela cells, 5xRE 6 bp spacer reporter (SEQ ID NO: 44), versus naturally used codons) | effect of codon optimization on reporter fluorescence levels ([2]; HEK cells) | EC10 of transfected MTF construct ([3]; two days after transfection) [ng] | EC50 of transfected MTF construct ([3]; two days after transfection) [ng] | theoretical EC90 of transfected MTF construct ([3]; slight drop at higher amounts) [ng]
1 | B1 | did not lead to mCerulean expression | showed the same behavior |  |  |  |  | 
2 | B2 |  |  | ca. 3 fold | no significant effect | 1.25 | 11.24 | 101
